# T1: His-ChlR1 63-214 (human, UniProt Q96FC9 63-214)
# T1 construct: DNA helicase ChlR1, human, amino acids 63 to 214, cloned from pCMV-FLAG-ChlR1 into pHIS-TEV; Vector pHIS-TEV (NcoI/EcoRI); held on nickel resin by the hexahistidine tag in the pull-down; also called ChlR1 63-214 peptide
# T1 sequence (looked up): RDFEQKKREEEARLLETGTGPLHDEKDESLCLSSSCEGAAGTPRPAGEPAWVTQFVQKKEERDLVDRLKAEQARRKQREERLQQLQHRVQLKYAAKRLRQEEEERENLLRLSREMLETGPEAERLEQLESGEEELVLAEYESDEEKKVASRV
# B1: HPV16 E2 D124A mutant (natural protein)
# chain: METLCQRLNVCQDKILTHYENDSTDLRDHIDYWKHMRLECAIYYKAREMGFKHINHQVVPTLAVSKNKALQAIELQLTLETIYNSQYSNEKWTLQDVSLEVYLTAPTGCIKKHGYTVEVQFDGAICNTMHYTNWTHIYICEEASVTVVEGQVDYYGLYYVHEGIRTYFVQFKDDAEKYSKNKVWEVHAGGQVILCPTSVFSSNEVSSPEIIRQHLANHPAATHTKAVALGTEETQTTIQRPRSEPDTGNPCHTTKLLHRDSVDSAPILTAFNSSHKGRINCNSNTTPIVHLKGDANTLKCLRYRFKKHCTLYTAVSSTWHWTGHNVKHKSAIVTLTYDSEWQRDQFLSQVKIPKTITVSTGFMSI
# notes: E2 protein of human papillomavirus 16, from pCMV-16E2 by site-directed mutagenesis; source: C33a cells, transfected (mutated pCMV-16E2), in lysate
# B2: HPV16 E2 D173A mutant (natural protein)
# chain: METLCQRLNVCQDKILTHYENDSTDLRDHIDYWKHMRLECAIYYKAREMGFKHINHQVVPTLAVSKNKALQAIELQLTLETIYNSQYSNEKWTLQDVSLEVYLTAPTGCIKKHGYTVEVQFDGDICNTMHYTNWTHIYICEEASVTVVEGQVDYYGLYYVHEGIRTYFVQFKADAEKYSKNKVWEVHAGGQVILCPTSVFSSNEVSSPEIIRQHLANHPAATHTKAVALGTEETQTTIQRPRSEPDTGNPCHTTKLLHRDSVDSAPILTAFNSSHKGRINCNSNTTPIVHLKGDANTLKCLRYRFKKHCTLYTAVSSTWHWTGHNVKHKSAIVTLTYDSEWQRDQFLSQVKIPKTITVSTGFMSI
# notes: as for B1
# B3: HPV16 E2 E118A mutant (natural protein)
# chain: METLCQRLNVCQDKILTHYENDSTDLRDHIDYWKHMRLECAIYYKAREMGFKHINHQVVPTLAVSKNKALQAIELQLTLETIYNSQYSNEKWTLQDVSLEVYLTAPTGCIKKHGYTVAVQFDGDICNTMHYTNWTHIYICEEASVTVVEGQVDYYGLYYVHEGIRTYFVQFKDDAEKYSKNKVWEVHAGGQVILCPTSVFSSNEVSSPEIIRQHLANHPAATHTKAVALGTEETQTTIQRPRSEPDTGNPCHTTKLLHRDSVDSAPILTAFNSSHKGRINCNSNTTPIVHLKGDANTLKCLRYRFKKHCTLYTAVSSTWHWTGHNVKHKSAIVTLTYDSEWQRDQFLSQVKIPKTITVSTGFMSI
# notes: as for B1
# B4: HPV16 E2 K177A mutant (natural protein)
# chain: METLCQRLNVCQDKILTHYENDSTDLRDHIDYWKHMRLECAIYYKAREMGFKHINHQVVPTLAVSKNKALQAIELQLTLETIYNSQYSNEKWTLQDVSLEVYLTAPTGCIKKHGYTVEVQFDGDICNTMHYTNWTHIYICEEASVTVVEGQVDYYGLYYVHEGIRTYFVQFKDDAEAYSKNKVWEVHAGGQVILCPTSVFSSNEVSSPEIIRQHLANHPAATHTKAVALGTEETQTTIQRPRSEPDTGNPCHTTKLLHRDSVDSAPILTAFNSSHKGRINCNSNTTPIVHLKGDANTLKCLRYRFKKHCTLYTAVSSTWHWTGHNVKHKSAIVTLTYDSEWQRDQFLSQVKIPKTITVSTGFMSI
# notes: as for B1
# B5: HPV16 E2 H130R mutant (natural protein)
# chain: METLCQRLNVCQDKILTHYENDSTDLRDHIDYWKHMRLECAIYYKAREMGFKHINHQVVPTLAVSKNKALQAIELQLTLETIYNSQYSNEKWTLQDVSLEVYLTAPTGCIKKHGYTVEVQFDGDICNTMRYTNWTHIYICEEASVTVVEGQVDYYGLYYVHEGIRTYFVQFKDDAEKYSKNKVWEVHAGGQVILCPTSVFSSNEVSSPEIIRQHLANHPAATHTKAVALGTEETQTTIQRPRSEPDTGNPCHTTKLLHRDSVDSAPILTAFNSSHKGRINCNSNTTPIVHLKGDANTLKCLRYRFKKHCTLYTAVSSTWHWTGHNVKHKSAIVTLTYDSEWQRDQFLSQVKIPKTITVSTGFMSI
# notes: as for B1
# B6: HPV16 E2 Y131A mutant (natural protein)
# chain: METLCQRLNVCQDKILTHYENDSTDLRDHIDYWKHMRLECAIYYKAREMGFKHINHQVVPTLAVSKNKALQAIELQLTLETIYNSQYSNEKWTLQDVSLEVYLTAPTGCIKKHGYTVEVQFDGDICNTMHATNWTHIYICEEASVTVVEGQVDYYGLYYVHEGIRTYFVQFKDDAEKYSKNKVWEVHAGGQVILCPTSVFSSNEVSSPEIIRQHLANHPAATHTKAVALGTEETQTTIQRPRSEPDTGNPCHTTKLLHRDSVDSAPILTAFNSSHKGRINCNSNTTPIVHLKGDANTLKCLRYRFKKHCTLYTAVSSTWHWTGHNVKHKSAIVTLTYDSEWQRDQFLSQVKIPKTITVSTGFMSI
# notes: as for B1
# Biological target: T1, His-ChlR1 63-214
# Assay: pull-down; His-ChlR1 1-130 or His-ChlR1 63-214 immobilised on nickel resin, incubated with cleared whole-cell lysate of E2-transfected C33a cells for 16 h at 4°C; bound E2 by Western blotting, densitometry against input
# Conditions: one partner purified
row,Binder,% E2 bound (in comparison to the E2^WT binding level) [%]
1,B1,38.8
2,B2,80.5
3,B3,107
4,B4,36.3
5,B5,45.2
6,B6,5.43
